Experimental data taken from a protein production outcome set (Wang et al. 2014).

Assay: label from the status in PepcDB records
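Also: failed if final PepcDB status was selected cloned or expressed and not failed if soluble or beyond.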

For “MTDSTTELTPAAPVSWPDGKTCAVAFTFDVDAESPLLTTDPAFADRMGTMSHQAYGPLVGVPRLLGILDEFNVPGTFFVPGYTAHRHPEPIRSIARAGHEIAHHGYLHESLVGADEDTERKILTRGIEALEEVAGVHPVGYRAPMWEMNWHTPKLLAEFGFLYDSTLMDSDHPYELAVGDGSLVELPVSWALDDWQQYCFVPDFSGTGLIETPAKAIELWRAELNAMRDIGGAWVLTNHPFLSGRPGRAAALREFIAEVCAMDDVWVAGMSQIAEHVRAQKLTPRTLTRPELTPVAE”, the protein production was “not failed”.

With “MSAIDRGSGSSMEEPERPEGPLADADGRESVTDHQDTTAADTPEDATTGSAARSETGAAPDTAQAASAPSAAAAPASEPAASAAEQRDASHEAPAPGSRETPPHPAPRPAPFAPQSHAPHPAWGPPAPDQATARHGAQAYPGPEAPQPAPGRPGPPPAGGVPAGAAQGAWQERPAQHDQPNSPTGAWAVPPSPGGFFPPTGGFPTLHGSSPFEGAPPPGKPQRSGRVVLIAAVTALITSLIVGPAASVATAYFLSEQVAANPAATSAASGDVTKVAAKALPSVVSIATAEGGGSGFIIRDDGLIVTNNHVVSDAQELTVLFHDGSQASATIVGTDPVSDLAVIRAQGVSGLTPASLGDSDQVEVGAEVVAIGAPLGLSGTVTSGVVSAVERPVNTGVSGQQDSPLLPSPDEEEPQATTSTVIDAIQTDAPINPGNSGGPLVNMNGEVIGINTAIATTSGNFMSQSGSIGLGFAIPINQAKPIIEELINTGKATYAAIEASVTVAEDGPGAELVEVNRGGAADQAGLRKGDVIIRIEDRMVTDPNVLIAEIRSHRPGDTVTITYQRGGQTAQTTVTLAAQSLDN” the protein production was “failed”.

In the case of “MADSESKIYHERQRLQFCLLHCLNNLFQDKDAFTKESLNSIAEKLETNDPNKETWTPLSFVLKPHHNTITGNYDVNVMITALEGKGKSVVWHDKRIGASSIDLDDADTLMGIVLNVPVKRYGGLWRSRHWVVVRKINGVWYNLDSDLVVPQLFRDDDEVRGFLDQNLSLDVIGLIWNLPYNANQLPLASNYRVVITHWSDLNGMFSHVTNYPLDFDVYPQVSSKVSAIYKATGTKRFNANTRPVTPGKQSSVKGPYYKNPGCTTSCGLRLPRKTECTAARLIKDLSCKFVMGLRLVVMRKKKKKRSPPLKKASSSGISQPSVISVVNDNNHRSAAIEDCIQFINSSSSFTRSNSTCGSKS”, the protein production was “failed”.

For “MRTIYVIGIGTGSPEFLTLQAISGLRHAQAIVALDKGEQKSDLLALRQKIVDTHAPGTPIYAVTDPERDRNPDNYEEEVRRWHAERAHLLASTIRERTPDDGAVAFLVWGDPSLYDSTLRIIEHMRNLEDLHADVKVIPGITAVQVLTAEHGILINRIGEAIHITTGRNLPETSAKDRRNCVVMLDGKTAWQDVATEHTYMWWGAFLGTEQQVLRKGYVHEIGAQVAELKQQLRTEHGWIMDTYLLRELD”, the protein production was “not failed”.

In the case of “SAQDEEDRVLIHFNVRDIKIGPECHDVQPPEGRSRDGLLTVNLREGGRLHLCAETKDDALAWKTALLEANSTPVRVYSPYQDYYEVVPPNAHEATYVRSYYGPPYAGPGVTHVIVREDPCYSAGAPLAMGMLAGAATGAALGSLMWSPCWF”, the protein production was “failed”.

For “SGIIKMAIRFDRRAYPPQITPKMCLLEWCRREKLPQPVYETVQRTIDRMFCSVVTVAEQKYQSTLWDKSKKLAEQTAAIVCLRSQGLPEGRLGEESPSLNKRKREAPDQDPGGPR”, the protein production was “not failed”.

With “MSHSLKDFLEACETLGTLRLIVTSSAAVLEARGKIEKLFYAELAKGKYANMHTEGFEFHLNMEKITQVKFETGEAKRGNFTTYAIRFLDEKQESALSLFLQWGKPGEYEPGQVEAWHTLKEKYGEVWEPLPVQL” the protein production was “not failed”.

In the case of “MNTSHSSPSNTLLWQSLGLGLLALLLFCAGADHQSAIGFDSRFVLFAKEMLRHGPGFFPTTYGQPYADYSSASTLLVWLFSLPGGQVTSLTAWLPTAIASALIVSLIYRLLAPYSRTWALLSVALLLLSNTFISETRAVSLDQMLAAVSLAVFYLGYAHDHFGTRRRLGWIFLLLVLGFAIRGPIGLVIPTGMLCSYYLLNGQWRRLFSVGFSALALLVACVGLLLWLAKLSGGQAFVDDVIRMQFMGRMDGSEGSSDVFYYFTSSLGNYALAYPLAILAWLAVLLTRATEQGPGLKLLRLCTAAGLIVMIGLSIPQAKKARYLLPMLPMAAIIAAYPFQAGRGRLLAWLRGAIQGLWLLLPGLLIIGLLVLRRKFPEQLDSLTPMLLVLGLLQLLSLGLLFKRQWRAVGLAYSAVLAVWACYIGVFEPVEHRLYDTRTFSHSAMQLIEADPAPVVLHRMGKDAKAIKFMVNLDRDLQPQFTESPDALAQVPGPAWVILDQSDLASLQNTPLADLKPVLSGRFDKNDFVLLHLTGPTAAQP”, the protein production was “failed”.

With “MNHTLQFPKAPEHLLQALNEVIPKCKLMAQQLPETAISLWLIPPVFPTERLDDDIIRRIWSDTPYWIFCWASGLAMAQWLLAEPHHVKDKVVLDFGAGSGVVAIAAKMAGAKRVICCDIDETSLNACRENALLNNVELEYLNDLYLSESVDILLAADVLYDQSNRFFLDEFLKFAPEVWVADSRVKNFSHPGYIKIDERSATTWPDLDEAKEFRNVSFYKTL” the protein production was “failed”.

With “MPDSPTLLDLFAEDIGHANQLLQLVDEEFQALERRELPVLQQLLGAKQPLMQQLERNGRARAEILREAGVSLDREGLARYARERADGAELLARGDELGELLERCQQANLRNGRIIRANQASTGSLLNILRGQDAPSLYDSRGGTASSSRQRPLSKA” the protein production was “not failed”.

For “MIDAQMSERFPARINILAVNSPGSLAEITQVISANDANIQNLSFIRTAPDFTEIMIDLEVWDLKHLNRIFSQLKKAGSVSTVRRGHGLEHHHHHH”, the protein production was “failed”.

For “MSLARVLLNIHGTGDTVVLALCDEDLLGVELKYKGRTLHISEPFYSGKSMEPDRAAKKIREAVQEYEDEKTVAINALGELACSVVVDAGLAREDEIGELGGVPHVQMYILPREPFLEGHHHHHH”, the protein production was “not failed”.

In the case of “MSNKRIGVVIVSYGHEQDVANLVDTFADQLKTGDRVVVVDNRKPWVLKDAVGERLEKHGAEIINHDNGGFAAGCNVGAAHIVDDVDLLFFLNPDTVIDDPTLFNSLRRVDEQWAAFMPYLLLPDSTINSAGNALHISGLSWVTGLDEKPVEGSSEVTDISIASGACLAVRVDWWKRLGGMEELYFMYHEDTDFSARLLLAGGRIGLLHSAYVTHHYDYAKGDYKWIYIERNRHVLLLSVLPLPLLFVLIPQILGVNLGLWAIAAKEKRVGLKVKSLRLLIRDLPAIFKLRRSTQELAELTPSQYLAKMEWRLDNPNLGNIGSNKIVATGYKTYYKLCMSILKLLA”, the protein production was “failed”.

For “MSLPISLTDFFPIQGGMATRMVIEGANFGTDLSQIKVFFNQKEASILNVKNSIIYLLVPKLPGNDCIVTVKVGNQEARFTRNFQYIENYSVTTIAGQPGTNLFVEGTLAAAQFGPVQHLAIDDENNLFITERNGSDGKGTCSVLNEESGTVTFLFKASDNLNVPTVNAQTQNVYIPLDGGYTFYELNPVNQWIAKSRLVLHPSKEQQEAGMDDFEINWKHSLAFSRYDNMIYTRSYGGDLIKVDPETRVGQKIGNFFPNTDSFIVAHPTQPEILYIAYAAKHVIYTYNIETGEHKLFAGAFGQSGWNDGIATDAEFNSPRQMSLDMEGNIYIADSGNHCIRMIDKNGIVTTPIGQPGEAGYADGSPDMALLNDPRGVAVNSEGDVYIADLGNRCIRKLTLQLEHHHHHH”, the protein production was “not failed”.

In the case of “MTLFDGTPFEWAPGRIEVRARRECGASRKSLVVAAGVSYLARMIFSFDAFVTNALFDRSGRAMFALGDGTVRLQTDEGFVTVEAHGGPLGGAVLAAAVHPSGAGIVTGGDDGRVVWSRIEGGEVVATLIAEVKNKWIEHVAASAASGLIAFTVGKEVHVRDAADPAFARTFPHEKTVSGLAFEPKGRRLASATYGGAYLWYARIADQKPTVLKWAGSHIAVEFSPDGKFLISSMQENQLHGWRLSDGKDMRMGGYPSKIKSVAFFDKGNLLATAGASGAVIWPFAGANGPMGKEAAEIGFSRDSMVVRVAGIDPQPVCIAGQDSGKIWAAHMRNGRIETLKAEKGAPISALSVSADGKRLAWGDESGEAGVLEIPDLSGPRQFVGLEHHHHHH”, the protein production was “failed”.

For “MYEHQTYEAILVRMLARVPETIDKREGSLIYDALAPGAAELAQAYAELVVNNNLSFADTASGEFLTRRAAEFGIKRKVATKAWRRGGFLDSNNALLNIPLGSRYSIGGLNYTAIEQISTGAYVLECETAGTAGNQQFGDLLPIAYVNSLARAELTEVLVPGEDEETDEALLSRYYETVNEPAFGGNMADYRQKVNAINGVGGTKVFPTWAGGGTVKCTIIASDWAKPSPELVNEVQSTMDPEENQGMGLGQAPIGHAVTIAGVDKVTVDVETTLTLAPGVTPGQVQSDVEAILDAYLLEQRKTWAAQTQIIIRMAQIDARMLTVQGVEDVTGTKLNGTEANFLLDEEEIPILGTVIINELEHHHHHH”, the protein production was “failed”.

In the case of “MPIHSLSLAGFRSIRKLTLELDALNVVVGANGCGKSNLYKSIQLLHAAAEGGLSAALAAEGGAQKAMWAGGTRRGDKARVPKRMILSARLDDYDYELQLGYPEPSCSLFALDPLVKEESLWLAGHGRRPSTLLLERRNQAAFLCGVEGERNSYPASLRAEESLFGQLAEPHRYPELSQVRETLRNWRFYHEFAIWPGSPLRAPQVGIRSPVLAHDGANLAAAFQTIVEIGDHELLHSVLTDAFPDSRFLVDAQQGRFQMLMRRDGLLRPLEAAELSDGTLRFLCLAVALLSPRPPAFMALNEPENSLHPALLPALARLIAEASRHSQLWVTSHSPELAERIRRHRPLKTFQLSLRDGETVLQDDLEHHHHHH”, the protein production was “failed”.

With “MSQKIVILGSGESGVGAALLSKAKGYDTFVSDSSMITEAFIAELQQAGIAFEQGVHSEEKILSAQLIVKSPGIPEKAPIMKLIRSKAIEVISEIEFAYRHIHPGAKFIAITGSNGKTTTTLLTHHILAQLGYSVGLGGNIGTSLARQIIHEKKDVYVLELSSFQLDDMYTFKADVAVLLNITPDHLDRYEYKFENYTASKFRIFQNLTPADYYITYSEDSVIESYKKDHPVDARYVPVSLKQLYSAGAYSDEKTIQIHALDDTVVTCNTEEFPLQGKHNYINIMAALNAAVSIGADIHKSIASIKSFRNAPHRLEFVGSIYGVKFVNDSKATNVDSVWYALDSMKTPVVLIVGGVDKGNDYSQIEALVKEKVHTVVALGKDNSKVLSGFASMVSEIKEAHSMVEAIRIAHDSAKKGDTVLLSPACASFDLFKNYEDRGTQFRNLVIELAG” the protein production was “failed”.

In the case of “MNFYWFDAFILGFTLLLGLKGIINGLIKEIFGLLGIIGGVFIASKYATQAAEFIQSTFYKIENQSLAGFAGFLAILIIFWIVCLLVGNFLSRLIKLSGLGFLDRIGGFIFGGAKIFLIFAILVFCVARIDFLNDKLDNFAKNSYTLNLLKETGSFIMNQPLTENSLDHASEKLQDIVSDLNNTQKGE”, the protein production was “failed”.

With “MASNSSSCPTPGGGHLNGYPVPPYAFFFPPMLGGLSPPGALTTLQHQLPVSGYSTPSPATIETQSSSSEEIVPSPPSPPPLPRIYKPCFVCQDKSSGYHYGVSACEGCKGFFRRSIQKNMVYTCHRDKNCIINKVTRNRCQYCRLQKCFEVGMSKESVRNDRNKKKKEVPKPECSESYTLTPEVGELIEKVRKAHQETFPALCQLGKYTTNNSSEQRVSLDIDLWDKFSELSTKCIIKTVEFAKQLPGFTTLTIADQITLLKAACLDILILRICTRYTPEQDTMTFSDGLTLNRTQMHNAGFGPLTDLVFAFANQLLPLEMDDAETGLLSAICLICGDRQDLEQPDRVDMLQEPLLEALKVYVRKRRPSRPHMFPKMLMKITDLRSISAKGAERVITLKMEIPGSMPPLIQEMLENSEGLDTLSGQPGGGGRDGGGLAPPPGSCSPSLSPSSNRSSPATHSP” the protein production was “not failed”.

For “MMRQPRARTMTMRDDIRDLPANDDRMTRFLGGSPMAVAFRLILMSILVGVVLAAIGLDPWNIITSIRLLFERIWDLGFDAINGLWRYFLLGAVIVIPIWLLTRLASTPRGR”, the protein production was “failed”.

In the case of “MDDWRRFAQQMASLARDLLSQESLHDTLDRITASATELVEDCDAAGILILRGTKVQSLAPTEQVVIDSDALQGRVGEGPCFDAARSGTGERQFRIADFTDEAQRWPKYVPEARKLNLGSMMGFLLFTEDEDLGALNMYSYRPGAFTEADETAGWLLASHAAVAFSSARTHAQMQEAIGTRHIIGEAMGILMGRHRMSEDQAFAALRRYSQDHNVKLRNVAAQVCERGGLPEPTDKR”, the protein production was “failed”.
